In general, stoichiometry N refers to the number of molecules, sites or subunits per partner or assembly.

Among the data in publication PMC9436389 (Frontiers in Immunology, 2022) are stoichiometry N values, retold here.

Assay [1] concerns the target EBOV GP[change] (unstabilised, ectodomain-only Ebola virus glycoprotein without mucin-like domain) (Ebola virus (Mayinga 1976 strain)) (UniProt Q05320). Put plainly: SEC. On the technique in general: In gel filtration, larger molecules generally elute earlier.
Assay [2] addresses NiV F[change] (recombinant NiV sF glycoprotein in its postfusion conformation) (Nipah virus). Put plainly: SEC.

For the substance “EBOV GP[change] (unstabilised, ectodomain-only Ebola virus glycoprotein without mucin-like domain) (from UniProt Q05320) (domain or fragment)”, the stoichiometry N in assay [1] was found to be 3.
“NiV F[change] (recombinant NiV sF glycoprotein in its postfusion conformation) (domain or fragment)”: the stoichiometry N in assay [2] came to 3.
